Measurements from patent US9260500B2, “Peptide and use thereof” (Takeda Pharmaceutical Company Limited, priority 2009, dated 2016).
Starred links: 1 amine or outer side, 2 acyl side, 3 side chain; linkers in the order of their positions; H or OH if unused. Non-standard residues stand in square brackets, D forms with d. No end group written: not given here. *: point of attachment. X11 = ((1S)-1-carboxy-3-methylbutyl)carbamoyl, CC(C)C[C@H](NC(=O)*)C(=O)O; tBuAla = CC(C)(C)C[C@H](N)C(=O)O; 4Pal = N[C@@H](Cc1ccncc1)C(=O)O; dHyp = O=C(O)[C@H]1C[C@H](O)CN1; Cha = N[C@@H](CC1CCCCC1)C(=O)O; Gly(N-CH2CH2OH) = O=C(O)CNCCO; Suc = O=C(CCC(=O)[*:2])[*:1]; Iva = CC[C@](C)(N)C(=O)O; NMeA = CN[C@@H](C)C(=O)O; Nleu = CC(C)CNCC(=O)O; Aib = CC(C)(N)C(=O)O; βAla = NCCC(=O)O

Key:
human Y2 receptor [1] = target: T1, human Y2 receptor (Homo sapiens, UniProt P49146); assay: Receptor Binding Assay (RBA) for Human Y2, [125I]-PYY displacement on hY2R/CHO membrane fraction; conditions: IC50 of test compound/IC50 of PYY(3-36) (PYY(3-36) taken as 1)
T1 construct: expressed in transfected cells; membrane fraction
T1 sequence (P49146 1-381): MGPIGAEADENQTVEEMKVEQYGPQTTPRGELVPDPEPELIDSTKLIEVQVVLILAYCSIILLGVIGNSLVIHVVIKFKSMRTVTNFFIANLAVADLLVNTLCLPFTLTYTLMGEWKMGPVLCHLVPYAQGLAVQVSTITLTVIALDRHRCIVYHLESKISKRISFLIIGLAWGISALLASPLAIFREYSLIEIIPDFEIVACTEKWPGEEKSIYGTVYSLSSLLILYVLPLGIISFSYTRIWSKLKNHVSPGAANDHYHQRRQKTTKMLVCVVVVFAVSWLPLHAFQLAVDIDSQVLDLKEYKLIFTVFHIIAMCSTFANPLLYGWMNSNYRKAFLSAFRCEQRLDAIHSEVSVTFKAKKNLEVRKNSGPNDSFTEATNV
How it was run: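 Read-out is [125I]-PYY displacement from membranes of CHO/dhfr− cells stably transfected with human Y2R. Membranes were obtained by disrupting cells in a buffer of 10 mM NaHCO3, 5 mM EDTA and protease inhibitors.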

male C57EL/6J mice = assay: 3-Days Continuous Subcutaneous Administration Test-1 (food intake suppressing activity); assay type: in vivo, mouse; conditions: 0.03 mg/kg/day, subcutaneous Alzet pump, food consumption over 3 days; relative to food intake suppression rate for PYY(3-36) (1 mg/kg/day) taken as 100%
Procedure: (4) Test Method: 3-Days Continuous Subcutaneous Administration Test-1
The food intake suppressing activity of the compound of the present invention was examined by the method described below.
The test compound was dissolved in 50% DMSO so that sustained release would occur at 0.03 mg/kg/day, and the solution was filled in the Alzet Pump (Alzet model: 1003D, sustained release rate: 1 μL/hr, capacity: 100 μL). After the filling, the pump was placed in a 2 mL Eppendorf tube containing 330 μL of physiological saline, and incubated at 37° C. for 2 hours or more. Thereafter, this pump was subcutaneously embedded in the back of each mouse by the method described below. After weighing, each male […] mice at 12-13 weeks of age (25° C., allowed to take food and water ad libitum; 12-hour bright-12-hour dark cycle, lighting turned on at 08:00) was anesthetized with diethyl ether; the skin in the upper back thereof was incised, and the above-mentioned pump was embedded subcutaneously. Thereafter, several drops of penicillin solution (100000 units/mL) were added to the incised part, and the incision was sutured using Michel's surgical needle. This mouse was returned to the rearing cage (reared alone), and given previously weighed food; 3 days later, the amount of remaining food was measured. Food consumption was calculated by subtracting the amount of remaining food after 3 days from the weight of the food given on the day of pump embedding. The food intake suppressing activity of each test compound was expressed as a food intake suppression rate (%) relative to the food intake suppression rate for PYY(3-36) (1 mg/kg/day) taken as 100%.

human Y2 receptor [2] = target: T1, human Y2 receptor; assay: Human Y2 Receptor G Protein Binding Assay (GBA), [35S]GTPγS; assay type: biochemical; conditions: EC50 of test compound/EC50 of PYY(3-36) (PYY3-36 taken as 1), hY2R/CHO membrane fraction
How it was run: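 Agonism measured as [35S]GTPγS binding, read by GF/C filtration and scintillation counting after 120 min at room temperature, using human Y2 membranes at 1 μg protein/mL in pH 7.4 Tris/MgCl2/NaCl/GDP buffer. Compound serially diluted 100 μM–1 nM; EC50 normalized to PYY(3-36) (ratio = compound/PYY).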

| Substance | RBA IC50 Ratio (human Y2 receptor [1]) | food intake suppression rate (%) (male C57EL/6J mice) | GBA EC50 Ratio (human Y2 receptor [2]) |
| --- | --- | --- | --- |
| 2-Methylbutanoyl-[D-Pro24, Pya(4)26, Cha27,36, Aib28,31, Lys30]-PYY(23-36) ({2‑methylbutanoyl}-S[dP]R[4Pal][Cha][Aib]NK[Aib]TRQR[Cha]-NH2) [compound No. 276] | 0.54 | 16 | 0.78 |
| 3-Carboxypropionyl-[D-Hyp24, Iva25, Pya(4)26, Cha27,36, Leu(Me)28, Lys30, Aib31]-PYY(23-36) (Suc-S[dHyp][Iva][4Pal][Cha][tBuAla]NK[Aib]TRQR[Cha]-NH2; SMILES CC[C@](C)(NC(=O)[C@H]1C[C@H](O)CN1C(=O)[C@H](CO)NC(=O)CCC(=O)O)C(=O)N[C@@H](Cc1ccncc1)C(=O)N[C@@H](CC1CCCCC1)C(=O)N[C@@H](CC(C)(C)C)C(=O)N[C@@H](CC(N)=O)C(=O)N[C@@H](CCCCN)C(=O)NC(C)(C)C(=O)N[C@H](C(=O)N[C@@H](CCCNC(=N)N)C(=O)N[C@@H](CCC(N)=O)C(=O)N[C@@H](CCCNC(=N)N)C(=O)N[C@@H](CC1CCCCC1)C(N)=O)[C@@H](C)O) [compound No. 350] | 0.92 | 41 | 1.9 |
| Ac-[D-Pro24, Cha27,36, Leu(Me)28, Lys30, Aib31]-PYY(23-36) (Ac-S[dP]RH[Cha][tBuAla]NK[Aib]TRQR[Cha]-NH2; SMILES CC(=O)N[C@@H](CO)C(=O)N1CCC[C@@H]1C(=O)N[C@@H](CCCNC(=N)N)C(=O)N[C@@H](Cc1c[nH]cn1)C(=O)N[C@@H](CC1CCCCC1)C(=O)N[C@@H](CC(C)(C)C)C(=O)N[C@@H](CC(N)=O)C(=O)N[C@@H](CCCCN)C(=O)NC(C)(C)C(=O)N[C@H](C(=O)N[C@@H](CCCNC(=N)N)C(=O)N[C@@H](CCC(N)=O)C(=O)N[C@@H](CCCNC(=N)N)C(=O)N[C@@H](CC1CCCCC1)C(N)=O)[C@@H](C)O) [compound No. 136] | – | 10 | – |
| Ac-[D-Pro24, Phe26, Cha27,36, Aib28,31, Lys30]-PYY(23-36) (Ac-S[dP]RF[Cha][Aib]NK[Aib]TRQR[Cha]-NH2; SMILES CC(=O)N[C@@H](CO)C(=O)N1CCC[C@@H]1C(=O)N[C@@H](CCCNC(=N)N)C(=O)N[C@@H](Cc1ccccc1)C(=O)N[C@@H](CC1CCCCC1)C(=O)NC(C)(C)C(=O)N[C@@H](CC(N)=O)C(=O)N[C@@H](CCCCN)C(=O)NC(C)(C)C(=O)N[C@H](C(=O)N[C@@H](CCCNC(=N)N)C(=O)N[C@@H](CCC(N)=O)C(=O)N[C@@H](CCCNC(=N)N)C(=O)N[C@@H](CC1CCCCC1)C(N)=O)[C@@H](C)O) [compound No. 345] | – | 10 | – |
| Ac-[Glu23, D-Pro24, Cha27,28,36, Lys30, Aib31]-PYY(23-36) (Ac-E[dP]RH[Cha][Cha]NK[Aib]TRQR[Cha]-NH2; SMILES CC(=O)N[C@@H](CCC(=O)O)C(=O)N1CCC[C@@H]1C(=O)N[C@@H](CCCNC(=N)N)C(=O)N[C@@H](Cc1c[nH]cn1)C(=O)N[C@@H](CC1CCCCC1)C(=O)N[C@@H](CC1CCCCC1)C(=O)N[C@@H](CC(N)=O)C(=O)N[C@@H](CCCCN)C(=O)NC(C)(C)C(=O)N[C@H](C(=O)N[C@@H](CCCNC(=N)N)C(=O)N[C@@H](CCC(N)=O)C(=O)N[C@@H](CCCNC(=N)N)C(=O)N[C@@H](CC1CCCCC1)C(N)=O)[C@@H](C)O) [compound No. 137] | – | 25 | – |
| [(1S)-1-carboxy-3-methylbutyl]carbamoyl-[D-Pro24, Cha27,36, Leu(Me)28, Lys30, Aib31]-PYY(23-36) (X11-S[dP]RH[Cha][tBuAla]NK[Aib]TRQR[Cha]-NH2; SMILES CC(C)C[C@H](NC(=O)N[C@@H](CO)C(=O)N1CCC[C@@H]1C(=O)N[C@@H](CCCNC(=N)N)C(=O)N[C@@H](Cc1c[nH]cn1)C(=O)N[C@@H](CC1CCCCC1)C(=O)N[C@@H](CC(C)(C)C)C(=O)N[C@@H](CC(N)=O)C(=O)N[C@@H](CCCCN)C(=O)NC(C)(C)C(=O)N[C@H](C(=O)N[C@@H](CCCNC(=N)N)C(=O)N[C@@H](CCC(N)=O)C(=O)N[C@@H](CCCNC(=N)N)C(=O)N[C@@H](CC1CCCCC1)C(N)=O)[C@@H](C)O)C(=O)O) [compound No. 253] | – | 19 | – |
| [Lys(Ac)23, D-Pro24, Cha27,28,36, Aib31]-PYY(23-36) (K(Ac)[dP]RH[Cha][Cha]NL[Aib]TRQR[Cha]-NH2; N-terminus assumed; SMILES CC(=O)NCCCC[C@H](N)C(=O)N1CCC[C@@H]1C(=O)N[C@@H](CCCNC(=N)N)C(=O)N[C@@H](Cc1c[nH]cn1)C(=O)N[C@@H](CC1CCCCC1)C(=O)N[C@@H](CC1CCCCC1)C(=O)N[C@@H](CC(N)=O)C(=O)N[C@@H](CC(C)C)C(=O)NC(C)(C)C(=O)N[C@H](C(=O)N[C@@H](CCCNC(=N)N)C(=O)N[C@@H](CCC(N)=O)C(=O)N[C@@H](CCCNC(=N)N)C(=O)N[C@@H](CC1CCCCC1)C(N)=O)[C@@H](C)O) [compound No. 163] | 5.4 | – | 2.5 |
| [MeAla22, D-Pro24, Cha27,28,36, Aib31]-PYY(22-36) ([NMeA]S[dP]RH[Cha][Cha]NL[Aib]TRQR[Cha]-NH2; N-terminus assumed; SMILES CN[C@@H](C)C(=O)N[C@@H](CO)C(=O)N1CCC[C@@H]1C(=O)N[C@@H](CCCNC(=N)N)C(=O)N[C@@H](Cc1c[nH]cn1)C(=O)N[C@@H](CC1CCCCC1)C(=O)N[C@@H](CC1CCCCC1)C(=O)N[C@@H](CC(N)=O)C(=O)N[C@@H](CC(C)C)C(=O)NC(C)(C)C(=O)N[C@H](C(=O)N[C@@H](CCCNC(=N)N)C(=O)N[C@@H](CCC(N)=O)C(=O)N[C@@H](CCCNC(=N)N)C(=O)N[C@@H](CC1CCCCC1)C(N)=O)[C@@H](C)O) [compound No. 123] | 0.6 | – | 0.72 |
| [N(2-hydroxyethyl)Gly23, D-Pro24, Cha27,28,36, Aib31]-PYY(23-36) ([Gly(N-CH2CH2OH)][dP]RH[Cha][Cha]NL[Aib]TRQR[Cha]-NH2; N-terminus assumed; SMILES CC(C)C[C@H](NC(=O)[C@H](CC(N)=O)NC(=O)[C@H](CC1CCCCC1)NC(=O)[C@H](CC1CCCCC1)NC(=O)[C@H](Cc1c[nH]cn1)NC(=O)[C@H](CCCNC(=N)N)NC(=O)[C@H]1CCCN1C(=O)CNCCO)C(=O)NC(C)(C)C(=O)N[C@H](C(=O)N[C@@H](CCCNC(=N)N)C(=O)N[C@@H](CCC(N)=O)C(=O)N[C@@H](CCCNC(=N)N)C(=O)N[C@@H](CC1CCCCC1)C(N)=O)[C@@H](C)O) [compound No. 134] | 2.0 | – | 1.2 |
| [N(iBu)Gly23, D-Pro24, Cha27,28,36, Aib31]-PYY(23-36) ([Nleu][dP]RH[Cha][Cha]NL[Aib]TRQR[Cha]-NH2; N-terminus assumed; SMILES CC(C)CNCC(=O)N1CCC[C@@H]1C(=O)N[C@@H](CCCNC(=N)N)C(=O)N[C@@H](Cc1c[nH]cn1)C(=O)N[C@@H](CC1CCCCC1)C(=O)N[C@@H](CC1CCCCC1)C(=O)N[C@@H](CC(N)=O)C(=O)N[C@@H](CC(C)C)C(=O)NC(C)(C)C(=O)N[C@H](C(=O)N[C@@H](CCCNC(=N)N)C(=O)N[C@@H](CCC(N)=O)C(=O)N[C@@H](CCCNC(=N)N)C(=O)N[C@@H](CC1CCCCC1)C(N)=O)[C@@H](C)O) [compound No. 133] | 5.8 | – | 2.4 |
| [βAla23, D-Pro24, Cha27,28,36, Aib31]-PYY(23-36) ([βAla][dP]RH[Cha][Cha]NL[Aib]TRQR[Cha]-NH2; N-terminus assumed; SMILES CC(C)C[C@H](NC(=O)[C@H](CC(N)=O)NC(=O)[C@H](CC1CCCCC1)NC(=O)[C@H](CC1CCCCC1)NC(=O)[C@H](Cc1c[nH]cn1)NC(=O)[C@H](CCCNC(=N)N)NC(=O)[C@H]1CCCN1C(=O)CCN)C(=O)NC(C)(C)C(=O)N[C@H](C(=O)N[C@@H](CCCNC(=N)N)C(=O)N[C@@H](CCC(N)=O)C(=O)N[C@@H](CCCNC(=N)N)C(=O)N[C@@H](CC1CCCCC1)C(N)=O)[C@@H](C)O) [compound No. 116] | 1.7 | – | 1.2 |
